Measured values: patent publication US6040149A, “Assay for identifying agents which act on the ceramide-activated protein kinase, kinase suppressor of ras, and methods of using said agents” (priority 1997, dated 2000)

T1: KSR (Mus musculus, UniProt Q61097)
T1 sequence (Q61097 1-873): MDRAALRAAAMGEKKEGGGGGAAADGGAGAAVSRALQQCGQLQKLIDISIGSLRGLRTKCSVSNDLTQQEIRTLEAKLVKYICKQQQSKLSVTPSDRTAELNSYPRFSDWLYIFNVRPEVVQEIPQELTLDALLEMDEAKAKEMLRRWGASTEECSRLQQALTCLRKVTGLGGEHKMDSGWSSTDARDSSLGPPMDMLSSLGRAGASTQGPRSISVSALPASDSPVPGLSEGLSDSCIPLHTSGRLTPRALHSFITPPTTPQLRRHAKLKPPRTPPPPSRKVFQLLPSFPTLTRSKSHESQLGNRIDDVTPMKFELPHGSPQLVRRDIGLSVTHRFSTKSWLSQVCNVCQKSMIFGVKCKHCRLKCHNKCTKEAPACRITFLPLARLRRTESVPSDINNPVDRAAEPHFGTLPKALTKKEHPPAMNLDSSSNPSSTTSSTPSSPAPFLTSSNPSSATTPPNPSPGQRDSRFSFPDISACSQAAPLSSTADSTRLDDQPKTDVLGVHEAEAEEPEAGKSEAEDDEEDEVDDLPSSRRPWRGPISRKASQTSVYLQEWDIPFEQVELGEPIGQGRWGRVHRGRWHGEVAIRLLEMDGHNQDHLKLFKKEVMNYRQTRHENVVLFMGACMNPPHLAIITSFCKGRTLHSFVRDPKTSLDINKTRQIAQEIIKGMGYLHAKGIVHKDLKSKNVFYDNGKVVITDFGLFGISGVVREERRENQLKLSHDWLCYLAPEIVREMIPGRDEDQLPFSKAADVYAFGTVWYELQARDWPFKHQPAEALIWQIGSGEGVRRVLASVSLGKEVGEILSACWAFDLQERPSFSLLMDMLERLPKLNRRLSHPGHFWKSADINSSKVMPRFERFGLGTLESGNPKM


Assays:
KSR = molecular target: T1, KSR; assay: KSR autophosphorylation after treatment of COS-7 cells expressing KSR; type: cell-based, mouse (KSR expressed in COS-7 cells); settings: COS-7 cells, preliminary
Method: FIG. 23A--COS-7 cells were transfected as in FIG. 22A and placed in serum-free medium. After 4 hours, cells were stimulated for 10 min with the ceramide analog, C2-ceramide (Biomol), at the concentrations indicated. Cells were lysed with NP-40 lysis buffer, and Flag-tagged KSR (0.8 mg protein for each point) was immunoprecipitated and assayed for autophosphorylation activity as described in Experimental Procedures. The autoradiogram was exposed for 1 hour. KSR is expressed at similar levels in each sample as monitored by Western blot (data not shown). Data represent one of three similar experiments.
COS-7 cells expressing Flag-tagged KSR were stimulated with 10 nM TNFα for the times indicated and lysed with NP-40 buffer as in FIG. 2A. […] The autoradiogram was exposed for 1 hour. Data represent one of three similar experiments.
KSR was immunoprecipitated as above from 0.8 mg NP-40 lysate protein with 40 μl agarose-conjugated anti-Flag antibody at 4° C. for 4 hrs or overnight. […] The reaction was stopped by addition of Laemmli sample buffer. Samples were resolved by 7.5% sodium dodecyl sulfate-polyacrylamide gel electrophoresis (SDS-PAGE) and autoradiographed.

Raf-1 [1] = assay: Raf-1 activity after co-expression with KSR in COS-7 cells; type: cell-based, human (Raf-1 expressed in COS-7 cells)
Method: Some studies used untagged KSR (n=4) and yielded identical results. At 60 hours post-transfection, cells were lysed with RIPA buffer (NP-40 buffer containing 0.1% SDS and 0.1% deoxy cholate). […] […]. The samples were boiled for 5 min, resolved with SDS-PAGE (7.5%) and autoradiographed.
[…]. After 30 min, the reaction was stopped by addition of Laemmli sample buffer and phosphorylated MBP were resolved by 15% SDS-PAGE, prior to autoradiography.
; a kind gift of Dr. Natalie Ahn) or 1.25 μg recombinant human MEK1 (Santa Cruz), 0.625 μg recombinant human ERK1 (UBI) and myelin basic protein (MBP). After 20-30 min, the reaction was stopped by addition of SDS sample buffer. […]

Raf-1 [2] = assay: Activation of Raf-1 by KSR in vitro (MEK1 phosphorylation)

Molecule	activation of KSR/CAP kinase (KSR)	Raf-1 activation in COS-7 cells co-expressing KSR (Raf-1 [1])	direct effect on MEK or ERK (Raf-1 [2])
EGF: EGF (protein, UniProt P01133 23-1207, looked up, Pro-epidermal growth factor) Pro-epidermal growth factor: PQHWSCPEGTLAGNGNSTCVGPAPFLIFSHGNSIFRIDTEGTNYEQLVVDAGVSVIMDFHYNEKRIYWVDLERQLLQRVFLNGSRQERVCNIEKNVSGMAINWINEEVIWSNQQEGIITVTDMKGNNSHILLSALKYPANVAVDPVERFIFWSSEVAGSLYRADLDGVGVKALLETSEKITAVSLDVLDKRLFWIQYNREGSNSLICSCDYDGGSVHISKHPTQHNLFAMSLFGDRIFYSTWKMKTIWIANKHTGKDMVRINLHSSFVPLGELKVVHPLAQPKAEDDTWEPEQKLCKLRKGNCSSTVCGQDLQSHLCMCAEGYALSRDRKYCEDVNECAFWNHGCTLGCKNTPGSYYCTCPVGFVLLPDGKRCHQLVSCPRNVSECSHDCVLTSEGPLCFCPEGSVLERDGKTCSGCSSPDNGGCSQLCVPLSPVSWECDCFPGYDLQLDEKSCAASGPQPFLLFANSQDIRHMHFDGTDYGTLLSQQMGMVYALDHDPVENKIYFAHTALKWIERANMDGSQRERLIEEGVDVPEGLAVDWIGRRFYWTDRGKSLIGRSDLNGKRSKIITKENISQPRGIAVHPMAKRLFWTDTGINPRIESSSLQGLGRLVIASSDLIWPSGITIDFLTDKLYWCDAKQSVIEMANLDGSKRRRLTQNDVGHPFAVAVFEDYVWFSDWAMPSVMRVNKRTGKDRVRLQGSMLKPSSLVVVHPLAKPGADPCLYQNGGCEHICKKRLGTAWCSCREGFMKASDGKTCLALDGHQLLAGGEVDLKNQVTPLDILSKTRVSEDNITESQHMLVAEIMVSDQDDCAPVGCSMYARCISEGEDATCQCLKGFAGDGKLCSDIDECEMGVPVCPPASSKCINTEGGYVCRCSEGYQGDGIHCLDIDECQLGEHSCGENASCTNTEGGYTCMCAGRLSEPGLICPDSTPPPHLREDDHHYSVRNSDSECPLSHDGYCLHDGVCMYIEALDKYACNCVVGYIGERCQYRDLKWWELRHAGHGQQQKVIVVAVCVVVLVMLLLLSLWGAHYYRTQKLLSKNPKNPYEESSRDVRSRRPADTEDGMSSCPQPWFVVIKEHQDLKNGGQPVAGEDGQAADGSMQPTSWRQEPQLCGMGTEQGCWIPVSSDKGSCPQVMERSFHMPSYGTQTLEGGVEKPHSLLSANPLWQQRALDPPHQMELTQ	does not activate KSR/CAP kinase	–	–
KSR: mouse kinase suppressor of ras, Flag-tagged (protein, UniProt Q61097 1-873, looked up, Flag tag, mouse kinase suppressor of ras, Flag-tagged) Kinase suppressor of Ras 1: MDRAALRAAAMGEKKEGGGGGAAADGGAGAAVSRALQQCGQLQKLIDISIGSLRGLRTKCSVSNDLTQQEIRTLEAKLVKYICKQQQSKLSVTPSDRTAELNSYPRFSDWLYIFNVRPEVVQEIPQELTLDALLEMDEAKAKEMLRRWGASTEECSRLQQALTCLRKVTGLGGEHKMDSGWSSTDARDSSLGPPMDMLSSLGRAGASTQGPRSISVSALPASDSPVPGLSEGLSDSCIPLHTSGRLTPRALHSFITPPTTPQLRRHAKLKPPRTPPPPSRKVFQLLPSFPTLTRSKSHESQLGNRIDDVTPMKFELPHGSPQLVRRDIGLSVTHRFSTKSWLSQVCNVCQKSMIFGVKCKHCRLKCHNKCTKEAPACRITFLPLARLRRTESVPSDINNPVDRAAEPHFGTLPKALTKKEHPPAMNLDSSSNPSSTTSSTPSSPAPFLTSSNPSSATTPPNPSPGQRDSRFSFPDISACSQAAPLSSTADSTRLDDQPKTDVLGVHEAEAEEPEAGKSEAEDDEEDEVDDLPSSRRPWRGPISRKASQTSVYLQEWDIPFEQVELGEPIGQGRWGRVHRGRWHGEVAIRLLEMDGHNQDHLKLFKKEVMNYRQTRHENVVLFMGACMNPPHLAIITSFCKGRTLHSFVRDPKTSLDINKTRQIAQEIIKGMGYLHAKGIVHKDLKSKNVFYDNGKVVITDFGLFGISGVVREERRENQLKLSHDWLCYLAPEIVREMIPGRDEDQLPFSKAADVYAFGTVWYELQARDWPFKHQPAEALIWQIGSGEGVRRVLASVSLGKEVGEILSACWAFDLQERPSFSLLMDMLERLPKLNRRLSHPGHFWKSADINSSKVMPRFERFGLGTLESGNPKM	–	marked increase in Raf-dependent MEK1 phosphorylation	no direct effect
